We go through one molecule from paper PMC5875430 (Leukemia, 2013).

In test [1] the target is T1, class IV granulocyte colony-stimulating factor receptor (alternatively spliced, truncated isoform) (human, UniProt Q99062-4 25-783).
T1 sequence (looked up): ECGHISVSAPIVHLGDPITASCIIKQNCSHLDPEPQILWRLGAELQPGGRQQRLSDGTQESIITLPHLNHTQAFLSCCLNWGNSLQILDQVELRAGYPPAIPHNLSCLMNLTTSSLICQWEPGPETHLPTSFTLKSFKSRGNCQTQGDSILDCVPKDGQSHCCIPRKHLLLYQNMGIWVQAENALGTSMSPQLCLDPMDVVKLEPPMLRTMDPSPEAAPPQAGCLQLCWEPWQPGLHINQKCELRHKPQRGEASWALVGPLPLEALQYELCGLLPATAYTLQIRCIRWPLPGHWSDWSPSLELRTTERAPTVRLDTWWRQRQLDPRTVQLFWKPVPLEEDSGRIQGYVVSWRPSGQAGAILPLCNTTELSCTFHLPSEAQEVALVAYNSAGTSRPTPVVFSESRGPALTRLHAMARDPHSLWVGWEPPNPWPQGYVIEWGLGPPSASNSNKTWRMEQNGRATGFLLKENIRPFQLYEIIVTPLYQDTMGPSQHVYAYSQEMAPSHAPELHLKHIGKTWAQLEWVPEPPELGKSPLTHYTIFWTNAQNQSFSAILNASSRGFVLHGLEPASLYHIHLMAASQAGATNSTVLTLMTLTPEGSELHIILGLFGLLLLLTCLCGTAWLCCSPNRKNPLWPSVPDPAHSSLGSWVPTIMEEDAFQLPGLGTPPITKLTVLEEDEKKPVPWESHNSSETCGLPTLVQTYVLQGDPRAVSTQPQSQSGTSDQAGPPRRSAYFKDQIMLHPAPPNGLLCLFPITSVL
Briefly: radioligand binding.

Test [2] concerns the target T2, class I granulocyte colony-stimulating factor receptor (canonical, full-length isoform) (human, UniProt Q99062 25-836).
T2 sequence (looked up): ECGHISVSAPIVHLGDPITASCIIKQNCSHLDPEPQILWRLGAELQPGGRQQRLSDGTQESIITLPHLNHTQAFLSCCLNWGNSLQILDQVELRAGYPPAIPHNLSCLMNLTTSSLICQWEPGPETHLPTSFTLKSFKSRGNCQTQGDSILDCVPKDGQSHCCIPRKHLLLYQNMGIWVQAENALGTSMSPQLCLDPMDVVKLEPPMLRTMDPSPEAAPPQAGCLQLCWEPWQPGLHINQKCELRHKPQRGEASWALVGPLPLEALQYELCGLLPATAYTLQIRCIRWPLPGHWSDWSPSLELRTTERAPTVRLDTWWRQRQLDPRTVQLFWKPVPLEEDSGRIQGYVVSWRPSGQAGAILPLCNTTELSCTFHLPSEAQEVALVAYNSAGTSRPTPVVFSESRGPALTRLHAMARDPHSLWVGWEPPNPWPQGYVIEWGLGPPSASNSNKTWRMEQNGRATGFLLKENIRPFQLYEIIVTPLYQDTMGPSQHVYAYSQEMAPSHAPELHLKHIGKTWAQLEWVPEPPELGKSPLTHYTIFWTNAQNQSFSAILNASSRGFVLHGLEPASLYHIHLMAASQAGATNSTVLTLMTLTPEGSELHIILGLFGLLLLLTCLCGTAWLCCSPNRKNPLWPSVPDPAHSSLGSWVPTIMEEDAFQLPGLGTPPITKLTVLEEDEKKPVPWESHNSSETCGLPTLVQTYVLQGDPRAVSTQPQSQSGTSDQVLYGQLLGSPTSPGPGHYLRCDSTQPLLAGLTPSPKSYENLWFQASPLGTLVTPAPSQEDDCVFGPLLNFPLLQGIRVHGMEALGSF
Briefly: radioligand binding.

B1: human granulocyte colony-stimulating factor (ligand, UniProt P09919 31-207, looked up)
chain: TPLGPASSLPQSFLLKCLEQVRKIQGDGAALQEKLVSECATYKLCHPEELVLLGHSLGIPWAPLSSCPSQALQLAGCLSQLHSGLFLYQGLLQALEGISPELGPTLDTLQLDVADFATTIWQQMEELGMAPALQPTQGAMPAFASAFQRRAGGVLVASHLQSFLEVSYRVLRHLAQP
modifications: 125I Bolton-Hunter reagent label (site not stated)
As to B1, the values for the Kd in test [1] and in test [2] were 0.53 nM and 0.58 nM, respectively.
